{"source": "paper doi:10.1101/638320", "about": "“Analyzing the weak dimerization of a cellulose binding module by sedimentation velocity experiments” (bioRxiv, 2019)", "proteins": {"B1": {"name": "CBM_(CipA), cellulose binding module of the cellulosome anchoring protein CipA (domain or fragment, Clostridium thermocellum)", "chain": "MGNLKVEFYNSNPSDTTNSINPQFKVTNTGSSAIDLSKLTLRYYYTVDGQKDQTFWCDHAAIIGSNGSYNGITSNVKGTFVKMSSSTNNADTYLEISFTGGTLEPGAHVQIQGRFAKNDWSNYTQSNDYSFKSASQFVEWDQVTAYLNGVLVWGKEPLE", "notes": "abstract: Clostridium thermocellum, introduction: Cellulomonas fimi; differs from PDB 1NBC by the polyHis tag and two amino acids at the beginning and the end; Calculated monomer mass 18469 Da; Gene codon optimised for E. coli, in a modified pET28a(+); also called CMB_(CipA); source: E. coli BL21 (DE3), purified (heating to 70 °C, IMAC on HisTrap, desalting); not shown: His6, C-terminal, kept"}}, "key": {"[1]": {"target": "the molecule itself", "assay": "AUC; sedimentation velocity, absorbance at 280 nm, 50 000 rpm, 20 °C, PBS (137 mM NaCl, 2.7 mM KCl, 10 mM Na2HPO4, 1.8 mM KH2PO4, pH 7.35), 0.05 to 0.7 g/L; UltraScan III (2DSA, GA, GAMC, van Holde-Weischet; KD by discrete model genetic algorithm); dimer to monomers"}, "[2]": {"target": "the molecule itself", "assay": "AUC; loading concentration 0.50 mg/mL (27.07 uM)"}, "[3]": {"target": "the molecule itself", "assay": "AUC; loading concentration 0.70 mg/mL (37.90 uM)"}}}
{"protein": "B1", "values": [{"measurement": "Kd", "setting": "[1]", "result": "~87", "unit": "µM"}, {"measurement": "stoichiometry N", "setting": "[1]", "result": 2}, {"measurement": "Kd", "setting": "[2]", "result": 93.9, "unit": "µM"}, {"measurement": "Kd", "setting": "[3]", "result": 80.5, "unit": "µM"}]}
